# Reference: the RNAGym collection of RNA variant scans (doi:10.1073/pnas.2313332121)
# B1: TPR t1 (parent)
# chain: GACCAAUCUGCCCUCAGAGCUCGAGAACAUCUUCGGAUGCAGAGGAGGCAGGCUUCGGUGGCGCGAUAGCGCCAACGUCCUCAACCUCCAAUGCAUCCCACCACAUGAUGAUGCCUGAAGAGCCUUGGUUUUUUG
# Variants of: B1
# Assay: polymerase ribozyme fitness, log enrichment relative to wild type (log ratio); higher = more active; in vitro selection for triplet polymerase activity
# Outline: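 After PCR construction and transcription, each subunit's mutant library from a heterodimeric triplet polymerase ribozyme was annealed with a biotinylated primer, the partner subunit and triplets. Incubation was frozen, at −7 °C, and extended constructs were gel-excised, bound to streptavidin beads and amplified by RT-PCR, in one selection round done in triplicate. Fitness is the logarithm of a genotype's enrichment divided by that of the wild type, from inverse-variance-weighted replicate averages of Illumina-sequenced inputs and outputs. The base of the logarithm is 2, and genotypes needed ≥10 input reads and ≥1 read per output.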
row,Variant,polymerase ribozyme fitness (log ratio)
1,A6C A29U C56U C94A U112G,-3.35
2,A6C A29U G52U C53U G63U G120A C123U,-3.79
3,A6C A41U A43G G57U U130G,-3.78
4,A6C A43U A83U C98U C104U,-2.52
5,A6C A108G U129G,-3.64
6,A6C C8A U87A,0.391
7,A6C C8U C11U G69U C104G,-5.29
8,A6C C8U C89U,-0.206
9,A6C C11A C85U U112G,-2.47
10,A6C C11G C15U C102A G120A U133A,-2.14
11,A6C C11U G61U G113U,-4.99
12,A6C C12A,-1.61
13,A6C C12A C53U U78C,-1.07
14,A6C C12G G52A G63U U106A,-2.76
15,A6C C13A C88A,-3.16
16,A6C C13U C53U C85U A105U C124A U126G,-3.62
17,A6C C15U,-1.98
18,A6C C15U C34A G39C,-5.02
19,A6C C15U G63C,-2.01
20,A6C C22A U87C G113C,-5.35
21,A6C C22G A43C U59A U87C A118G,-5.18
22,A6C C31G C34U G42U G93C A111C,-6.9
23,A6C C40A C53G C99U U109A U112G,-5.56
24,A6C C40G A95C,-5.15

row,Variant,polymerase ribozyme fitness (log ratio)
1,A6C C40U G60A C73G G107U C124U,-5.46
2,A6C C53A G69C G120A,-1.04
3,A6C C56G,-0.703
4,A6C C56U A83C U112G,-1.14
5,A6C C72A,-1.05
6,A6C C72U,-0.203
7,A6C C76A C79U,-0.8
8,A6C C80A,-1.52
9,A6C C85A,-2.67
10,A6C C85G U92A U112G,-6.59
11,A6C G10A C13A A75G U125G,-0.518
12,A6C G10A U33A C49A A121U,-2.86
13,A6C G35C G57U G58U G60C U81G A111G U125C G135A,-6.83
14,A6C G36U G51A U109C C115U,-6.39
15,A6C G39U,-1.84
16,A6C G42U G63C C79U,-2.06
17,A6C G47A,0.295
18,A6C G47A C62U C86U U133G,-0.219
19,A6C G48A C82A,-1.56
20,A6C G48U C53U U59G C64U A95G,-3.63
21,A6C G52A C79U U87A,-0.58
22,A6C G52U C70G A74U G120C,-5.83
23,A6C G57C C72U,-0.529
24,A6C G61C U92C,-4.76

row,Variant,polymerase ribozyme fitness (log ratio)
1,A6C G61U U78C A100U G120A U131C,0.181
2,A6C G61U U87A,-0.857
3,A6C G71C,-1.18
4,A6C G71C G113U,-4.81
5,A6C G113U,-3.54
6,A6C G117U U126A U131C,-6.38
7,A6C U7A A27G U78C G113A,-1.35
8,A6C U9G G57U G113U G128U,-3.88
9,A6C U9G G69U A83G A91C G117U,-0.828
10,A6C U9G G69U A83G A91C G117U G135A,0.71
11,A6C U21A A37G A90G G120U G127U,-0.919
12,A6C U30C G69A,-5.82
13,A6C U38A C53G,-0.826
14,A6C U78A C79A,-3.63
15,A6C U133A,-0.897
16,A6G A16G G17U A18G G47A G61U,-3.02
17,A6G A18U C40G G42U U81C,-4.14
18,A6G A41C G57U G60A A100U,-2.82
19,A6G A46U U54G,-1.68
20,A6G A90G U112A,1.69
21,A6G A111U,-2.51
22,A6G A121U U125G,-0.777
23,A6G C8A U125A,0.146
24,A6G C8G C11U C22U C79U,-3.56

row,Variant,polymerase ribozyme fitness (log ratio)
1,A6G C11A U109G A119C C123G U125C,-5.22
2,A6G C12G A46U A50U C56U C73A,-2.15
3,A6G C12U A43C U54C C56U A66G C72U C73A,-6.56
4,A6G C12U G36U G52U C70U U96G A121C,-2.52
5,A6G C13G G51A C79G C88A G93C A108U C115U C124U,-7.39
6,A6G C15U C49A C53A G71U U78A,-0.614
7,A6G C22A G48U G110U,-6.03
8,A6G C22U A43C G45U C94A C124A,-5.87
9,A6G C31A G42U C53U A95U C101U C114U U126A,-5.71
10,A6G C34G C56A C70G G120U,-6.8
11,A6G C40G U59A A103U,-6.42
12,A6G C56G G69A C79A,-5.03
13,A6G C64U C73U G117C,-2.37
14,A6G C70A,-2.41
15,A6G C72A,0.991
16,A6G C72A C79A C102U A118U,-2.3
17,A6G C72G C89U,-0.661
18,A6G C72U,0.164
19,A6G C79U C88G C104U,-1.13
20,A6G C85U G113A,-2.51
21,A6G C88U G113U,-2.37
22,A6G C98U,-1.69
23,A6G G10A,0.127
24,A6G G10A C20A U112G,-1.35

row,Variant,polymerase ribozyme fitness (log ratio)
1,A6G G25A C34U G42C G69C U87C C114A C124U,-6.61
2,A6G G39U,-0.397
3,A6G G44C C49G,-1.68
4,A6G G44C U112C,0.311
5,A6G G45A C72U U109G G120U,-5.05
6,A6G G45C C94U G120A U126G,-5.4
7,A6G G48A G52C C85G U112C,-0.453
8,A6G G48U U54A G127A,-2.59
9,A6G G51A,-2.27
10,A6G G52U,-1.27
11,A6G G60U U78C C104A U109A,-5.54
12,A6G G63U C124A G128U,-1.92
13,A6G G71A C101A,-3.04
14,A6G G77U C82A C104U A121U U130A,1.36
15,A6G U7G A18C G48U C53A G63A C115A,-1.55
16,A6G U7G A18C G48U C53A G63A C115A U133A,-1.29
17,A6G U14A C72U C88U G93A,-1.77
18,A6G U14G G58A,-0.642
19,A6G U14G G58A C70U,-1.12
20,A6G U30C C73U C124A,-1.64
21,A6G U30C G63A A111U G127C,-5.37
22,A6G U96A C102A U129A,-5.24
23,A6G U112A U125G U129A,-1.7
24,A6G U112G C114G A119G U131C,-5.15

row,Variant,polymerase ribozyme fitness (log ratio)
1,A6U A16C,-2.44
2,A6U A16U A46C C56G,-2.72
3,A6U A26C C34G C64G A111U,-7.61
4,A6U A26G G52A G71U,-3.21
5,A6U A26U,-3.54
6,A6U A26U C34A A43U A121C,-7.38
7,A6U A26U C70A G120U,-5.12
8,A6U A26U G36C G63C,-5.14
9,A6U A27G C79U A111C,-4.62
10,A6U A27U G63A A121G U130A,-2.41
11,A6U A29G G44A C82A,-2.51
12,A6U A37U G60U C82G C85G,-2.29
13,A6U A41G A91G,-2.5
14,A6U A43U G63C G113U,-3.4
15,A6U A46C C85G G113A G135C,-3.74
16,A6U A46U C115A,-2.18
17,A6U A46U G110U,-2.57
18,A6U A50C,0.0675
19,A6U A50G C123A G128C,-0.104
20,A6U A68G A75U U92A C123A,-4.87
21,A6U A84C C86G G93U,-2.38
22,A6U A84U G110U,-1.45
23,A6U C8A,0.618
24,A6U C8A A37G G61U C98A,-3.75

row,Variant,polymerase ribozyme fitness (log ratio)
1,A6U C8A G52U C53A C72A U92A C101A U130G,-5.85
2,A6U C8A U129A,-1.48
3,A6U C8G C13U C20U G51A G61U,-4.27
4,A6U C8G G44U C49A G77U G120C U130G,-2.14
5,A6U C11U C124G,1.11
6,A6U C12A G61U,0.0933
7,A6U C12G C72U U78C,-0.414
8,A6U C12U G110U,-1.97
9,A6U C12U U81C,-0.545
10,A6U C13A U21C,-1.41
11,A6U C15A A37C C40G C80U U96G,-2.51
12,A6U C15A C56A A75G A105C,-4.99
13,A6U C15G G61A,-1.82
14,A6U C15G U33A G63A G93A G113U,-6.39
15,A6U C15G U59G,-2.42
16,A6U C15U C31G G51A U54A C73U C115U,-5.8
17,A6U C20A G61U U125G,-2.23
18,A6U C22G A26U C104U,-4.49
19,A6U C22U G51A,-5.76
20,A6U C28G G58A A100U,-3.49
21,A6U C34G U87A G120A,-3.94
22,A6U C40G G51U,-4.16
23,A6U C49A C53A C79A C85U A111C,-3.36
